Reference: PMC12990809

Tests used:
Assay in all cases: pulldown
[1] = target: hnrnpa0l (Danio rerio) (UniProt A0ACM8Q088); settings: 20 nM protein, 1.5 uM RNA pool; 20 mM HEPES pH 7.8, 70 mM KCl, 10 mM NaCl, 10% glycerol, 2 mM DTT, 0.1 ug/uL BSA; 30 min, 4 C
[2] = target: T1, CBG04067 ins404_V (Caenorhabditis briggsae) (UniProt Q6E3D5); settings: 20 nM protein, 1.5 uM RNA pool; 20 mM HEPES pH 7.8, 70 mM KCl, 10 mM NaCl, 10% glycerol, 2 mM DTT, 0.1 ug/uL BSA; 30 min, 4 C
T1 sequence: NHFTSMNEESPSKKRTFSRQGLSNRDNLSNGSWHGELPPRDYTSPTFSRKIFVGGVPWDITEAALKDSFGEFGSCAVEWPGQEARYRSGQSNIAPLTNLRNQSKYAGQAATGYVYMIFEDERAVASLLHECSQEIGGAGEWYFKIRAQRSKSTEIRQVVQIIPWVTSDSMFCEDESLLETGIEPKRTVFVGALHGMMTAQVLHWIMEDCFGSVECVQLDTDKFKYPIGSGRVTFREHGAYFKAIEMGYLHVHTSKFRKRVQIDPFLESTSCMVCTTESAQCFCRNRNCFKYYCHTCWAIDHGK

[3] = target: T2, A1CF (Gallus gallus) (UniProt A0A8V0ZPX5); settings: 20 nM protein, 1.5 uM RNA pool; 20 mM HEPES pH 7.8, 70 mM KCl, 10 mM NaCl, 10% glycerol, 2 mM DTT, 0.1 ug/uL BSA; 30 min, 4 C (protocol of this paper; not …); cited from earlier work
T2 sequence: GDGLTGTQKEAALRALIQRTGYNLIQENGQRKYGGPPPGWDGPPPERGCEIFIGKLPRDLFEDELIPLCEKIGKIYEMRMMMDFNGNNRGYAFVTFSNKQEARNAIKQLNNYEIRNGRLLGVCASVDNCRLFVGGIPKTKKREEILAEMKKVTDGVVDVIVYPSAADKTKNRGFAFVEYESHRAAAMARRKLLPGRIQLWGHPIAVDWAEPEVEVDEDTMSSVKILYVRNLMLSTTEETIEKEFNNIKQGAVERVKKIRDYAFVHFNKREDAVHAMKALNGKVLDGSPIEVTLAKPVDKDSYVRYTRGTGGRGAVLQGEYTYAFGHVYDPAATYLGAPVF

[4] = target: T3, CBG14639 (Caenorhabditis briggsae) (UniProt A8XKC4); settings: 20 nM protein, 1.5 uM RNA pool; 20 mM HEPES pH 7.8, 70 mM KCl, 10 mM NaCl, 10% glycerol, 2 mM DTT, 0.1 ug/uL BSA; 30 min, 4 C
T3 sequence: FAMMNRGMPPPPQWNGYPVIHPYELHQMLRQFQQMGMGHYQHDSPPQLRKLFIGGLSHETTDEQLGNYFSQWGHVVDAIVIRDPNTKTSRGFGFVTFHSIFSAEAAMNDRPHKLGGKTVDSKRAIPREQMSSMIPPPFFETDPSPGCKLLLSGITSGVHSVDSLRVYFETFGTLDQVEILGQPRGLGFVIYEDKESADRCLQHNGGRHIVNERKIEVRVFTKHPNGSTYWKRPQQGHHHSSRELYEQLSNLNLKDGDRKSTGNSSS

[5] = target: HNRNPA1 (Homo sapiens) (UniProt P09651); settings: 20 nM protein, 1.5 uM RNA pool; 20 mM HEPES pH 7.8, 70 mM KCl, 10 mM NaCl, 10% glycerol, 2 mM DTT, 0.1 ug/uL BSA; 30 min, 4 C (protocol of this paper; not …); cited from earlier work
[6] = target: T4, PK27672.1 (Cannabis sativa) (UniProt A0A7J6HI09); settings: 20 nM protein, 1.5 uM RNA pool; 20 mM HEPES pH 7.8, 70 mM KCl, 10 mM NaCl, 10% glycerol, 2 mM DTT, 0.1 ug/uL BSA; 30 min, 4 C
T4 sequence: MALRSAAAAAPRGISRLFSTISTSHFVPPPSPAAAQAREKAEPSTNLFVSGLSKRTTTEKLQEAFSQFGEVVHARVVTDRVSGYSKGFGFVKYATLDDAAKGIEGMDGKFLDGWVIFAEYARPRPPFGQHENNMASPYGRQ

[7] = target: T5, hnrnpr (Xenopus tropicalis) (UniProt A0A8J0QQ94); settings: 20 nM protein, 1.5 uM RNA pool; 20 mM HEPES pH 7.8, 70 mM KCl, 10 mM NaCl, 10% glycerol, 2 mM DTT, 0.1 ug/uL BSA; 30 min, 4 C (protocol of this paper; not …); cited from earlier work
T5 sequence: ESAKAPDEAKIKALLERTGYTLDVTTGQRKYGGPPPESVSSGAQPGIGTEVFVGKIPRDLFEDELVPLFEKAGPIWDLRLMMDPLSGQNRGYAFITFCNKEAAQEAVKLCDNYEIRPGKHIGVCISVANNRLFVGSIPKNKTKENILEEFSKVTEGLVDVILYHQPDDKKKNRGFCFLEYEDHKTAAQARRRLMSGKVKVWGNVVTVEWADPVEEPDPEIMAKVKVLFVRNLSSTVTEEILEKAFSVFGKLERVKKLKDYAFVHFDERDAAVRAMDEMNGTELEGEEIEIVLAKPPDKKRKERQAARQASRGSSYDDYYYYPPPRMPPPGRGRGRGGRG

[8] = target: T6, Y69A2AR.32 L314S (Caenorhabditis elegans) (UniProt H2L0S1); settings: 20 nM protein, 1.5 uM RNA pool; 20 mM HEPES pH 7.8, 70 mM KCl, 10 mM NaCl, 10% glycerol, 2 mM DTT, 0.1 ug/uL BSA; 30 min, 4 C
T6 sequence: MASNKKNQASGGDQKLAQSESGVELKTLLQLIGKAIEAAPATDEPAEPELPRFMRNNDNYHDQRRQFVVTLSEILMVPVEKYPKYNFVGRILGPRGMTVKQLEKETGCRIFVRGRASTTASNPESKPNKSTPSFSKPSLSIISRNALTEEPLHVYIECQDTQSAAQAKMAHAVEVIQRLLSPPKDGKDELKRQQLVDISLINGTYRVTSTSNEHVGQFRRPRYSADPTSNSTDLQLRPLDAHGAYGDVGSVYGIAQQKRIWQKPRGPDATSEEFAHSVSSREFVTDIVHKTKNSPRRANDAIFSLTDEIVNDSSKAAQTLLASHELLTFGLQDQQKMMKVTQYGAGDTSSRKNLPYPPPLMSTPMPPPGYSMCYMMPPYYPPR

[9] = target: T7, PK22404.1 A169L;A170F;T171A;T450P (Cannabis sativa) (UniProt A0A803PFA7); settings: 20 nM protein, 1.5 uM RNA pool; 20 mM HEPES pH 7.8, 70 mM KCl, 10 mM NaCl, 10% glycerol, 2 mM DTT, 0.1 ug/uL BSA; 30 min, 4 C
T7 sequence: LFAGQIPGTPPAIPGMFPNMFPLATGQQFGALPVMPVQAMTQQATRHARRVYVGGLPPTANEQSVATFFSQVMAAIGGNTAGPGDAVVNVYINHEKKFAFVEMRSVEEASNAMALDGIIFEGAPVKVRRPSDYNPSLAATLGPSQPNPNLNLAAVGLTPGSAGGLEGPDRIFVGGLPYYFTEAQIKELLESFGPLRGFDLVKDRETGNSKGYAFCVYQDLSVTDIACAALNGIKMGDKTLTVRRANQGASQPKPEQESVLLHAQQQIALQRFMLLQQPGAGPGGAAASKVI

[10] = target: T8, PK03611.1 N266D (Cannabis sativa) (UniProt A0A7J6FG33); settings: 20 nM protein, 1.5 uM RNA pool; 20 mM HEPES pH 7.8, 70 mM KCl, 10 mM NaCl, 10% glycerol, 2 mM DTT, 0.1 ug/uL BSA; 30 min, 4 C
T8 sequence: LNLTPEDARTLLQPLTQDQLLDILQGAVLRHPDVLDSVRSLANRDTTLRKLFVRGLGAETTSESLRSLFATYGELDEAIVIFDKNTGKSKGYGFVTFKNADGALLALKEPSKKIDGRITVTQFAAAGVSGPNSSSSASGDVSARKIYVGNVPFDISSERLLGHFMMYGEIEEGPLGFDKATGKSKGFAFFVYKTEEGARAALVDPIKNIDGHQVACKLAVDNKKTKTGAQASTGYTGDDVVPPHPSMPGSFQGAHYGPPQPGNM

hnrnpa0l (Danio rerio), sequence (A0ACM8Q088 entry or part of it): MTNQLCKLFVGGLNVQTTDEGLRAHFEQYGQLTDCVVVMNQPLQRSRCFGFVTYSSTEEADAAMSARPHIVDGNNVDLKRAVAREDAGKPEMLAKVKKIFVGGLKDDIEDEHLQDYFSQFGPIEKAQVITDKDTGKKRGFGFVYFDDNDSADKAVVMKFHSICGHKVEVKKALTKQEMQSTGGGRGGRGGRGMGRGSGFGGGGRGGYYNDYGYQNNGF
HNRNPA1 (Homo sapiens), sequence (P09651 1-226): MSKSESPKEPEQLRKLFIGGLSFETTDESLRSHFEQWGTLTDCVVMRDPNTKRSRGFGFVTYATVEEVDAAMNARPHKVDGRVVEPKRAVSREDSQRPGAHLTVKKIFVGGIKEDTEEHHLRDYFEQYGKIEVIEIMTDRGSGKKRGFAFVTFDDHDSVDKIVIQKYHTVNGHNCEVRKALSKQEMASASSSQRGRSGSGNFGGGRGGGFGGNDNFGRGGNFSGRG

## AUAGGA [RNAcompete motif RNCMPT00340]
[1]
  binding signal (z-score (mean of top ten 7-mers)): 10.9

## GUUUUA [RNAcompete motif RNCMPT00341]
[2]
  binding signal (z-score (mean of top ten 7-mers)): 9.44

## UAAUUG [RNAcompete motif RNCMPT00291]
[3]
  binding signal (z-score (mean of top ten 7-mers)): 12

## AUUAGG [RNAcompete motif RNCMPT00331]
[4]
  binding signal (z-score (mean of top ten 7-mers)): 8.86

## UAGGGA [RNAcompete motif RNCMPT00022]
[5]
  binding signal (z-score (mean of top ten 7-mers)): 10

## AGUACA [RNAcompete motif RNCMPT00342]
[6]
  binding signal (z-score (mean of top ten 7-mers)): 9.79

## AAAUU [RNAcompete motif RNCMPT00289]
[7]
  binding signal (z-score (mean of top ten 7-mers)): 8.84

## UACUNG [RNAcompete motif RNCMPT00324]
[8]
  binding signal (z-score (mean of top ten 7-mers)): 22.8

## UUUUUUG [RNAcompete motif RNCMPT00343]
[9]
  binding signal (z-score (mean of top ten 7-mers)): 13.5

## UUAUGUG [RNAcompete motif RNCMPT00326]
[10]
  binding signal (z-score (mean of top ten 7-mers)): 8.16
